target: biotinylated bovine FI (bovine); assay: BLI; Octet RED96; biotinylated bovine FI (150 nM) on streptavidin biosensors; PmSLP-1 as analyte at 0, 5, 16, 50, 160, 500, 1600 nM; 30 °C; PBS pH 7.4, 0.01% Tween 20; steady-state analysis, one-site model; settings: not given

Substance	Kd
PmSLP-1^15-318 (domain or fragment)	27 nM

target: biotinylated bovine FI; assay: biolayer interferometry; settings: n = 3; parent: 27 ± 3 nM

Substance	Kd
PmSLP-1^15-318 D121A	117 nM
PmSLP-1^15-318 R167A	107 nM
PmSLP-1^15-318 L127D	85 nM
PmSLP-1^15-318 I133D	43 nM
PmSLP-1^15-318 D210A	272 nM
PmSLP-1^15-318 D124R	53 nM
PmSLP-1^15-318 E132R	28 nM
PmSLP-1^15-318 K236E	32 nM
